T1: LRRC15 (leucine-rich repeat-containing protein 15) (human, UniProt Q8TF66 22-538, limits assumed)
T1 construct: The KD sentences say only 'LRRC15'; also called human LRRC15
T1 sequence (looked up): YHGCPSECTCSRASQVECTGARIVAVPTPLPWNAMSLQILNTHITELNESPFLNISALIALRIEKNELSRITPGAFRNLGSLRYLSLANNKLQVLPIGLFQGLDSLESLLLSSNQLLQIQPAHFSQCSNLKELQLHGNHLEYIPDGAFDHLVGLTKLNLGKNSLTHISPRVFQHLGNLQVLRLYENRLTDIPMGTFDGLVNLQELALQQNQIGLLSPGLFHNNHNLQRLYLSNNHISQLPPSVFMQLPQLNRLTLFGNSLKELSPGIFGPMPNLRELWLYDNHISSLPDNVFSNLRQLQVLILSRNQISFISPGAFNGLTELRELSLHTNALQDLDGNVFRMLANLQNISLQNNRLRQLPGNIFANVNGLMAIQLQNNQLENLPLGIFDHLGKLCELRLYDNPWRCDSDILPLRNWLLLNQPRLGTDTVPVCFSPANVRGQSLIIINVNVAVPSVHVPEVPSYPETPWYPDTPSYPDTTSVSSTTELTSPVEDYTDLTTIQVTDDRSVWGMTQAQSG


target: T1, LRRC15 (leucine-rich repeat-containing …); assay: binding analysis (koff and/or KD); method not named

Row | Binder | Kd
1 | mAb J66 (mouse) (antibody, V domains shown, From hybridomas of immunized mice; also called parent mouse antibody; Bin A2) VH: QVQMKESGTELVRPGTSVKMSCKAAGYTFTNYWIGWVKQRPGHGPEWIGDIYPRSGYTNYNEKFKGKATLTADTSSSTAYMQLSSLTSEDSTIYFCARSGGMYYFDYWGQGTTLTVSS VL: not shown | < 1 pM
2 | hzJ66 VHv1 / hzJ66 VLv1 (antibody, V domains shown, The KD sentence says only 'the parent humanized ... antibody'; also called parent humanized antibody (J66)) VH: QVQLVQSGAEVKKPGASVKVSCKASGYTFTNYWIGWVRQAPGQGLEWMGDIYPRSGYTNYNEKFKGRVTMTRDTSTSTVYMELSSLRSEDTAVYYCARSGGMYYFDYWGQGTTVTVSS VL: not shown | < 1 pM

target: T1, LRRC15 (leucine-rich repeat-containing …); assay: binding analysis (koff and/or KD) of mAb expressed in CHO cells; method not named

Row | Binder | Kd
3 | hzK713 VHv1 / hzK713 VLv1 (antibody, V domains shown, Expressed in CHO cells; also called parent antibody comprising hzK713 VLv1 in combination with heavy chain hzK713 VHv1) VH: QVQLVQSGAEVKKPGASVKVSCKASGYTFTDYYMNWVRQAPGQRLEWMGRVSPSNGGTNYNQKFRGRVTITRDTSASTAYMELSSLRSEDTAVYYCARRGAGYSYYAMDYWGQGTTVTVSS VL: DIVMTQSPDSLAVSLGERATINCRASESVDSYGNSLMYWYQQKPGQPPKLLIYLASNLESGVPDRFSGSGSGTDFTLTISSLQAEDVAVYYCQQNNEDPLTFGGGTKVEIK | 208 pM
4 | hzK713 VHv2 (N55Q) / hzK713 VLv1 (antibody, V domains shown, The KD sentence prints 'hzJ48 VHv2-v4', read as hzK713 VHv2-v4; also called printed in the KD sentence as hzJ48 VHv2 with hzK713 VLv1) VH: QVQLVQSGAEVKKPGASVKVSCKASGYTFTDYYMNWVRQAPGQRLEWMGRVSPSQGGTNYNQKFRGRVTITRDTSASTAYMELSSLRSEDTAVYYCARRGAGYSYYAMDYWGQGTTVTVSS VL: DIVMTQSPDSLAVSLGERATINCRASESVDSYGNSLMYWYQQKPGQPPKLLIYLASNLESGVPDRFSGSGSGTDFTLTISSLQAEDVAVYYCQQNNEDPLTFGGGTKVEIK | 307 pM
5 | hzK713 VHv3 (N55S) / hzK713 VLv1 (antibody, V domains shown, The KD sentence prints 'hzJ48 VHv2-v4', read as hzK713 VHv2-v4; also called printed in the KD sentence as hzJ48 VHv3 with hzK713 VLv1) VH: QVQLVQSGAEVKKPGASVKVSCKASGYTFTDYYMNWVRQAPGQRLEWMGRVSPSSGGTNYNQKFRGRVTITRDTSASTAYMELSSLRSEDTAVYYCARRGAGYSYYAMDYWGQGTTVTVSS VL: DIVMTQSPDSLAVSLGERATINCRASESVDSYGNSLMYWYQQKPGQPPKLLIYLASNLESGVPDRFSGSGSGTDFTLTISSLQAEDVAVYYCQQNNEDPLTFGGGTKVEIK | 212 pM
6 | hzK713 VHv4 (G56A) / hzK713 VLv1 (antibody, V domains shown, The KD sentence prints 'hzJ48 VHv2-v4', read as hzK713 VHv2-v4; also called printed in the KD sentence as hzJ48 VHv4 with hzK713 VLv1) VH: QVQLVQSGAEVKKPGASVKVSCKASGYTFTDYYMNWVRQAPGQRLEWMGRVSPSNAGTNYNQKFRGRVTITRDTSASTAYMELSSLRSEDTAVYYCARRGAGYSYYAMDYWGQGTTVTVSS VL: DIVMTQSPDSLAVSLGERATINCRASESVDSYGNSLMYWYQQKPGQPPKLLIYLASNLESGVPDRFSGSGSGTDFTLTISSLQAEDVAVYYCQQNNEDPLTFGGGTKVEIK | 334 pM
7 | hzJ48 VHv3 / hzJ48 VLv1.1 (N92S) (antibody, V domains shown, Human IgG1 or IgG1null and human kappa constant regions) VH: QVQLVQSGAEVKKPGASVKVSCKASGYTFTDYYINWVRQAPGQGLEWMGWIYPGSGNTKYAQKFQGRVTMTRDTSTSTVYMELSSLRSEDTAVYYCARWGYGAYFTYWGQGTLVTVSS VL: DIQMTQSPSSLSASVGDRVTITCKASQNVGINVAWYQQKPGKAPKLLIYSASYRSSGVPSRFSGSGSGTDFTLTISSLQPEDFATYYCQQYSSFPYTFGGGTKVEIK | 1700 pM
8 | hzJ48 VHv3 / hzJ48 VLv1.3 (S93A) (antibody, V domains shown, Human IgG1 or IgG1null and human kappa constant regions) VH: QVQLVQSGAEVKKPGASVKVSCKASGYTFTDYYINWVRQAPGQGLEWMGWIYPGSGNTKYAQKFQGRVTMTRDTSTSTVYMELSSLRSEDTAVYYCARWGYGAYFTYWGQGTLVTVSS VL: DIQMTQSPSSLSASVGDRVTITCKASQNVGINVAWYQQKPGKAPKLLIYSASYRSSGVPSRFSGSGSGTDFTLTISSLQPEDFATYYCQQYNAFPYTFGGGTKVEIK | 600 pM
9 | hzJ48 VHv3 / hzJ48 VLv1.2 (N92Q) (antibody, V domains shown, Human IgG1 or IgG1null and human kappa constant regions) VH: QVQLVQSGAEVKKPGASVKVSCKASGYTFTDYYINWVRQAPGQGLEWMGWIYPGSGNTKYAQKFQGRVTMTRDTSTSTVYMELSSLRSEDTAVYYCARWGYGAYFTYWGQGTLVTVSS VL: DIQMTQSPSSLSASVGDRVTITCKASQNVGINVAWYQQKPGKAPKLLIYSASYRSSGVPSRFSGSGSGTDFTLTISSLQPEDFATYYCQQYQSFPYTFGGGTKVEIK | 1600 pM
10 | hzF36 VHv6.2 (D54Q) / hzF36 VLv1 (antibody, V domains shown) VH: QVQLVQSGAEVKKPGASVKVSCKASGYTFTSFVIHWVRQAPGQGLEWMGYIYNQGTKYNERFRGRATLTSDKSTSTVYMELSSLRSEDTAVYYCARDYYFDYWGQGTLVTVSS VL: DIVMTQSPDSLAVSLGERATINCRASESVDYYGISFMNWYQQKPGQPPKLLIYAASNQGSGVPDRFSGSGSGTDFTLTISSLQAEDVAVYYCQQSKEVPYTFGGGTKVEIK | 340 pM
11 | hzF36 VHv6.4 (G55A) / hzF36 VLv1 (antibody, V domains shown) VH: QVQLVQSGAEVKKPGASVKVSCKASGYTFTSFVIHWVRQAPGQGLEWMGYIYNDATKYNERFRGRATLTSDKSTSTVYMELSSLRSEDTAVYYCARDYYFDYWGQGTLVTVSS VL: DIVMTQSPDSLAVSLGERATINCRASESVDYYGISFMNWYQQKPGQPPKLLIYAASNQGSGVPDRFSGSGSGTDFTLTISSLQAEDVAVYYCQQSKEVPYTFGGGTKVEIK | 320 pM
12 | hzF36 VHv6 / hzF36 VLv1.1 (M4L) (antibody, V domains shown, also called parent heavy chain hzF36 VHv6 in combination with light chain hzF36 VLv1.1) VH: QVQLVQSGAEVKKPGASVKVSCKASGYTFTSFVIHWVRQAPGQGLEWMGYIYNDGTKYNERFRGRATLTSDKSTSTVYMELSSLRSEDTAVYYCARDYYFDYWGQGTLVTVSS VL: DIVLTQSPDSLAVSLGERATINCRASESVDYYGISFMNWYQQKPGQPPKLLIYAASNQGSGVPDRFSGSGSGTDFTLTISSLQAEDVAVYYCQQSKEVPYTFGGGTKVEIK | 330 pM
13 | hzJ66 VHv2 (M102L) / hzJ66 VLv1 (antibody, V domains shown, also called printed as heavy chain variant hzJ66 VLv2 with light chain hzJ66 VHv1) VH: QVQLVQSGAEVKKPGASVKVSCKASGYTFTNYWIGWVRQAPGQGLEWMGDIYPRSGYTNYNEKFKGRVTMTRDTSTSTVYMELSSLRSEDTAVYYCARSGGLYYFDYWGQGTTVTVSS VL: not shown | < 1 pM
14 | hzJ66 VHv2 (M102L) / hzJ66 VLv1.1 (N22S) (antibody, V domains shown, also called printed as heavy chain variant hzJ66 VLv2 with light chain hzJ66 v1.1) VH: QVQLVQSGAEVKKPGASVKVSCKASGYTFTNYWIGWVRQAPGQGLEWMGDIYPRSGYTNYNEKFKGRVTMTRDTSTSTVYMELSSLRSEDTAVYYCARSGGLYYFDYWGQGTTVTVSS VL: not shown | < 1 pM

— patent WO2021102332A1 (dated 2021)
